Measurements: patent publication US11660961B2, “Host cells and methods for producing isopentenol from mevalonate” (The Regents of the University of California, priority 2015, dated 2023)
Several values for one entry are separate records, joined by “and”; a condition that tells them apart may be missing. Identical values can stand only once. Like-named read-outs stand apart in the source and are kept apart here.

Legend:
[1] = In vitro enzyme kinetics of decarboxylases, ADP formation coupled to NADH oxidation; type: biochemical; details: for Km / kcat / % of WT (kcat/Km): substrate MVAP; for % of WT (kcat/Km): relative to PMDsc wild type
Protocol: A plasmid encoding a wild type mevalonate diphosphate decarboxylase from Saccharomyces cerevisiae (PMDsc) with N-terminal His-tag (pSKB3-PMDsc) is transformed into E. coli BL21 (DE3). A seed culture of BL21 (DE3) harboring pSKB3-PMDsc is prepared by inoculating a single colony and growing it overnight in Luria-Bertani (LB) medium containing kanamycin (50 μg/mL). The seed culture is diluted in Terrific Broth supplemented with 2% glycerol and 50 μg/mL kanamycin and incubated at 37° C. until the optical density of the culture at 600 nm (OD600) reached to 0.6-0.8. The cell culture is supplemented with isopropyl-β-D-thiogalactopyranoside (IPTG) to the final concentration of 0.5 mM and transferred to 18° C. for protein expression overnight. Cells are collected by centrifugation and re-suspended in 50 mM Tris-HCl (pH 7.5) buffer containing 300 mM NaCl and 10 mM imidazole. Cells are lysed by sonication and purified by HisPur Cobalt Resins (Thermo Scientific, USA). The purified PMDss is desalted in 10 mM Tris-HCl (pH 7.5) containing 50 mM NaCl, 0.5 mM dithiothreitol (DTT) and 20% glycerol, and flash-frozen in liquid nitrogen for storage at −80° C. All PIVD mutants, PMDsc, and NudB are purified as described above, except that NudB is desalted in 50 mM Tris-HCl (pH 8.0) buffer containing 0.1 mM EDTA, 1 mM DTT and 20% glycerol.
(§1) In vitro enzyme kinetics of decarboxylases are performed as described in previous studies (Barta et al., 2012 and Vannice et al., 2014). Briefly, enzymatic activity of decarboxylase is determined by a spectrophotometer assay quantifying ADP product formation, which is coupled to NADH oxidation by pyruvate kinase/lactate dehydrogenase. Assay mixtures are prepared in 50 mM HEPES-KOH (pH 7.5) containing 10 mM MgCl2, 400 μM phosphoenolpyruvate, 200 μM NADH, 4 mM ATP, and 25 U of pyruvate kinase/lactate dehydrogenase (Sigma, P0294). The reaction is initiated by addition of various concentrations of MVAP from 100 μM to 4,000 μM, and the reaction velocity is determined by monitoring OD at 340 nm in Spectramax 384plus microplate reader (Molecular Devices, USA).

E. coli BW25113 = experiment: Isopentenol production in E. coli; type: cell-based, Escherichia coli; details: for isopentenol productivity: pathway II, through 30 hours of batch fermentation; for effect on in vivo isopentenol production: expressed in IPP-bypass pathway II in E. coli
Protocol: E. coli BW25113 harboring two plasmids is used for isopentenol production. Seed cultures of all production strains are prepared by growing single colonies in LB medium containing 100 μg/mL ampicillin and 30 μg/mL chloramphenicol overnight at 37° C. with shaking at 200 rpm. The seed cultures are diluted in EZ-Rich defined medium (Teknova, USA) containing 10 g/L glucose (1%, w/v), 100 μg/mL ampicillin and 30 μg/mL chloramphenicol. The E. coli cell cultures are incubated in rotary shakers (200 rpm) at 37° C., and 0.5 mM IPTG is added to induce protein expression at OD600 of 0.6-0.8. To provide different levels of aeration, identical volumes of the cell culture are split into two flasks for incubation at 30° C. with shaking at either 200 rpm or 30 rpm.
For isopentenol quantification, 250 μL of cell culture is combined with 250 μL of ethyl acetate containing 1-butanol (30 mg/L) as an internal standard. This mixture of ethyl acetate and cell culture is vigorously shaken for 15 min and subsequently centrifuged at 13,000 g for 2 min to separate ethyl acetate from the aqueous phase. 100 μL of the ethyl acetate layer was diluted 5-fold, and 1 μL is analyzed by Agilent GCMS equipped with Cyclosil-B column (Agilent, USA) or Thermo GCFID equipped with DB-WAX column (Agilent, USA) for quantitation of isopentenol.

[2] = In vitro decarboxylase activity toward MVA; type: biochemical
Protocol: as §1, with “The reaction is initiated by addition of various concentrations of MVAP from 100 μM to 4,000 μM, and the reaction velocity is determined by monitoring OD at 340 nm in Spectramax 384plus microplate reader (Molecular Devices, USA).” left out

[3] = substrate MVAPP, cited from earlier work
[4] = In vitro hydrolysis of IPP by purified Nudix hydrolase; type: biochemical; details: purified enzyme with IPP; up to 16 hours
Protocol: All metabolites are analyzed by liquid chromatography mass spectrometry (LC-MS; Agilent Technologies 1200 Series HPLC system and Agilent Technologies 6210 time-of-flight mass spectrometer) on a ZIC-HILIC column (150 mm length, 2.1-mm internal diameter, and 3.5-μm particle size). Standard chemicals (IPP and IP) are purchased from Sigma-Aldrich (USA). Metabolites are eluted isocratically with a mobile phase composition of 64% (v/v) acetonitrile containing 50 mM ammonium acetate with a flow rate of 0.15 mL/min. IPP and IP from E. coli extracts or enzyme assay are quantified via […] calibration curves ranging from 781.25 nM to 200 μM.

B1: PMDsc WT: wild type mevalonate diphosphate decarboxylase from Saccharomyces cerevisiae (protein, UniProt P32377 1-396, looked up)
Diphosphomevalonate …: MTVYTASVTAPVNIATLKYWGKRDTKLNLPTNSSISVTLSQDDLRTLTSAATAPEFERDTLWLNGEPHSIDNERTQNCLRDLRQLRKEMESKDASLPTLSQWKLHIVSENNFPTAAGLASSAAGFAALVSAIAKLYQLPQSTSEISRIARKGSGSACRSLFGGYVAWEMGKAEDGHDSMAVQIADSSDWPQMKACVLVVSDIKKDVSSTQGMQLTVATSELFKERIEHVVPKRFEVMRKAIVEKDFATFAKETMMDSNSFHATCLDSFPPIFYMNDTSKRIISWCHTINQFYGETIVAYTFDAGPNAVLYYLAENESKLFAFIYKLFGSVPGWDKKFTTEQLEAFNHQFESSNFTARELDLELQKDVARVILTQVGSGPQETNESLIDAKTGLPKE
- Km toward MVAP, fold higher than reported Km toward MVAPP ([1]; MVAP vs native substrate MVAPP): ~8 fold
- kcat toward MVAP, fold lower than reported kcat toward MVAPP ([1]; MVAP vs native substrate MVAPP): about 35 fold
- Km [1]: 990 µM
- kcat [1]: 0.14 s⁻¹
- % of WT (kcat/Km) [1]: 100%
- isopentenol productivity (E. coli BW25113): 15.9 mg/L/h
- activity on MVA [2]: too low to determine the kinetic parameters
- Km ([3]; Krepkiy and Miziorko, 2004): 123 µM
- kcat ([3]; literature): 5.9 s⁻¹ and 5.4 s⁻¹

B2: PMDsc I145F: PMDsc mutant I145F (protein)
chain: MTVYTASVTAPVNIATLKYWGKRDTKLNLPTNSSISVTLSQDDLRTLTSAATAPEFERDTLWLNGEPHSIDNERTQNCLRDLRQLRKEMESKDASLPTLSQWKLHIVSENNFPTAAGLASSAAGFAALVSAIAKLYQLPQSTSEFSRIARKGSGSACRSLFGGYVAWEMGKAEDGHDSMAVQIADSSDWPQMKACVLVVSDIKKDVSSTQGMQLTVATSELFKERIEHVVPKRFEVMRKAIVEKDFATFAKETMMDSNSFHATCLDSFPPIFYMNDTSKRIISWCHTINQFYGETIVAYTFDAGPNAVLYYLAENESKLFAFIYKLFGSVPGWDKKFTTEQLEAFNHQFESSNFTARELDLELQKDVARVILTQVGSGPQETNESLIDAKTGLPKE
- Km [1]: 1360 µM
- kcat [1]: 0.28 s⁻¹
- % of WT (kcat/Km) [1]: 147%
- % of WT (kcat/Km) ([1]; listed as I145F): 147%
- effect on in vivo isopentenol production (E. coli BW25113): reduces isopentenol titer and productivity
- activity on MVA [2]: do not show detectible hydrolysis activity on MVA

B3: PMDsc T209D: PMDsc mutant, T209 mutated to negatively charged aspartate (protein)
chain: MTVYTASVTAPVNIATLKYWGKRDTKLNLPTNSSISVTLSQDDLRTLTSAATAPEFERDTLWLNGEPHSIDNERTQNCLRDLRQLRKEMESKDASLPTLSQWKLHIVSENNFPTAAGLASSAAGFAALVSAIAKLYQLPQSTSEISRIARKGSGSACRSLFGGYVAWEMGKAEDGHDSMAVQIADSSDWPQMKACVLVVSDIKKDVSSDQGMQLTVATSELFKERIEHVVPKRFEVMRKAIVEKDFATFAKETMMDSNSFHATCLDSFPPIFYMNDTSKRIISWCHTINQFYGETIVAYTFDAGPNAVLYYLAENESKLFAFIYKLFGSVPGWDKKFTTEQLEAFNHQFESSNFTARELDLELQKDVARVILTQVGSGPQETNESLIDAKTGLPKE
- Km [1]: 990 µM
- kcat [1]: 0.13 s⁻¹
- % of WT (kcat/Km) [1]: 98%
- effect on in vivo isopentenol production (E. coli BW25113): do not significantly change the in vivo production titer

B4: PMDsc K22M: PMDsc mutant, K22 mutated to neutral methionine (protein)
chain: MTVYTASVTAPVNIATLKYWGMRDTKLNLPTNSSISVTLSQDDLRTLTSAATAPEFERDTLWLNGEPHSIDNERTQNCLRDLRQLRKEMESKDASLPTLSQWKLHIVSENNFPTAAGLASSAAGFAALVSAIAKLYQLPQSTSEISRIARKGSGSACRSLFGGYVAWEMGKAEDGHDSMAVQIADSSDWPQMKACVLVVSDIKKDVSSTQGMQLTVATSELFKERIEHVVPKRFEVMRKAIVEKDFATFAKETMMDSNSFHATCLDSFPPIFYMNDTSKRIISWCHTINQFYGETIVAYTFDAGPNAVLYYLAENESKLFAFIYKLFGSVPGWDKKFTTEQLEAFNHQFESSNFTARELDLELQKDVARVILTQVGSGPQETNESLIDAKTGLPKE
- Km [1]: 2470 µM
- kcat [1]: 0.09 s⁻¹
- % of WT (kcat/Km) [1]: 25%
- effect on in vivo isopentenol production (E. coli BW25113): do not significantly change the in vivo production titer

B5: PMDsc R74H: PMDsc mutant R74H (protein)
chain: MTVYTASVTAPVNIATLKYWGKRDTKLNLPTNSSISVTLSQDDLRTLTSAATAPEFERDTLWLNGEPHSIDNEHTQNCLRDLRQLRKEMESKDASLPTLSQWKLHIVSENNFPTAAGLASSAAGFAALVSAIAKLYQLPQSTSEISRIARKGSGSACRSLFGGYVAWEMGKAEDGHDSMAVQIADSSDWPQMKACVLVVSDIKKDVSSTQGMQLTVATSELFKERIEHVVPKRFEVMRKAIVEKDFATFAKETMMDSNSFHATCLDSFPPIFYMNDTSKRIISWCHTINQFYGETIVAYTFDAGPNAVLYYLAENESKLFAFIYKLFGSVPGWDKKFTTEQLEAFNHQFESSNFTARELDLELQKDVARVILTQVGSGPQETNESLIDAKTGLPKE
- Km [1]: 770 µM
- kcat [1]: 0.23 s⁻¹
- % of WT (kcat/Km) [1]: 220%
- % of WT (kcat/Km) ([1]; listed as R74H): 220%
- isopentenol productivity (E. coli BW25113): 20.4 mg/L/h
- activity on MVA [2]: do not show detectible hydrolysis activity on MVA

B6: NudF: NudF of B. subtilis, identified as a IPP hydrolase (protein, UniProt P54570 1-185, looked up)
ADP-ribose pyrophosphatase: MKSLEEKTIAKEQIFSGKVIDLYVEDVELPNGKASKREIVKHPGAVAVLAVTDEGKIIMVKQFRKPLERTIVEIPAGKLEKGEEPEYTALRELEEETGYTAKKLTKITAFYTSPGFADEIVHVFLAEELSVLEEKRELDEDEFVEVMEVTLEDALKLVESREVYDAKTAYAIQYLQLKEALQAQK
- IPP hydrolysis product [4]: hydrolyze IPP to IP, but not to isopentenol
